Consider 8 molecules from US20170233495A1 (CALYPSO BIOTECH, published 2017).

Changes are numbered by the printed parent chain. Bounds are passed on as bounds.

To fix the notation:
B1: F20-VH-GL1/B03-VL-GL1c (antibody, human IgG4, V domains shown)
VH: EVQLVESGGGLVQPGRSLRLSCAASGFTFNDYPMHWVRQAPGKGLEWVSGISSNSGSVGYADSVKGRFTISRDNAKNSLYLQMNSLRAEDTALYYCARDKIYYGSGSYDFYYYYGMDVWGQGTTVTVSS
VL: SSELTQDPAVSVALGQTVRITCQGDSLRSYYASWYQQKPGQAPVVVIYGKNNRPSGIPDRFSGSSSGNTVSLTITGAQAEDEADYYCQSRDNIGNHRVVLFGGGTKLTVL
B2: F20-VH-GL1-V1-V9-V14/B03-VL-GL1c (antibody, human IgG4 S228P, V domains shown)
VH: B1 VH with N54Q, D62E, M116I
VL: B1 VL
B3: F20-VH-GL1-V4-V9-V14/B03-VL-GL1c (antibody, human IgG4 S228P, V domains shown)
VH: B1 VH with N54R, D62E, M116I
VL: B1 VL
B4: F20-VH-GL1-V1-V9-V14/B08-VL-GL6c (antibody, human IgG4 S228P, V domains shown)
VH: B1 VH with N54Q, D62E, M116I
VL: QSALTQPASVSGSPGQSITISCTGTSNDVGAYNRVSWYQQHPGKAPKLMIYGVSNRPSGVSNRFSGSKSGNTASLTISGLQAEDEADFYCTSYSSSTTSYVVFGGGTKVTVL
B5: F20-VH-GL1-V4-V9/B08-VL-GL6c (antibody, human IgG4 S228P, V domains shown)
VH: B1 VH with N54R, D62E
VL: B4 VL
notes: The light chain constant region is not tied to it; also called F20-VH/B08-VLc variant; F20-VH/B08-VLc
B6: F20-VH-GL1-V1-V9/B08-VL-GL6c (antibody, human IgG4 S228P, V domains shown)
VH: B1 VH with N54Q, D62E
VL: B4 VL
B7: F20-VH-GL1/B08-VL-GL6c (antibody, human IgG4, V domains shown)
VH: B1 VH
VL: B4 VL
B8: F20-VH-GL1-V4-V9-V14/B08-VL-GL6c (antibody, human IgG4 S228P, V domains shown)
VH: B1 VH with N54R, D62E, M116I
VL: B4 VL

rat proMMP9, sequence (P50282 20-708): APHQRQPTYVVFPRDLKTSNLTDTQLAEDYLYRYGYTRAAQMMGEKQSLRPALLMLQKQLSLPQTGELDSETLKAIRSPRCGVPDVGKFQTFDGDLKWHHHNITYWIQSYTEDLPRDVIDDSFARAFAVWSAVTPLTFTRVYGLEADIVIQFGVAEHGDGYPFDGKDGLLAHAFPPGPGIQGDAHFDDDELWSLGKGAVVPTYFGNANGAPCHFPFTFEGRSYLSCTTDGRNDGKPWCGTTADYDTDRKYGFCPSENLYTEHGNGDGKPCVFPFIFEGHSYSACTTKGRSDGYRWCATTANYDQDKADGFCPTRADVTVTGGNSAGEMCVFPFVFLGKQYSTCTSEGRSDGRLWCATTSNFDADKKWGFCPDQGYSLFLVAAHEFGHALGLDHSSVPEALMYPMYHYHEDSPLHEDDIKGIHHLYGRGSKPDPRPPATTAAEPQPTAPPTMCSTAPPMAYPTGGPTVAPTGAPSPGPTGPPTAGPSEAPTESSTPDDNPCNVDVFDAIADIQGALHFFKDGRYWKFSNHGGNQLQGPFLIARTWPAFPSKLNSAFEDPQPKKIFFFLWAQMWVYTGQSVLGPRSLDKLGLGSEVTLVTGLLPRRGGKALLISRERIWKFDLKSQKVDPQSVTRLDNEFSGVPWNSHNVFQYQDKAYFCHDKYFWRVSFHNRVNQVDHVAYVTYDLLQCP
T5 sequence (P14780 20-707): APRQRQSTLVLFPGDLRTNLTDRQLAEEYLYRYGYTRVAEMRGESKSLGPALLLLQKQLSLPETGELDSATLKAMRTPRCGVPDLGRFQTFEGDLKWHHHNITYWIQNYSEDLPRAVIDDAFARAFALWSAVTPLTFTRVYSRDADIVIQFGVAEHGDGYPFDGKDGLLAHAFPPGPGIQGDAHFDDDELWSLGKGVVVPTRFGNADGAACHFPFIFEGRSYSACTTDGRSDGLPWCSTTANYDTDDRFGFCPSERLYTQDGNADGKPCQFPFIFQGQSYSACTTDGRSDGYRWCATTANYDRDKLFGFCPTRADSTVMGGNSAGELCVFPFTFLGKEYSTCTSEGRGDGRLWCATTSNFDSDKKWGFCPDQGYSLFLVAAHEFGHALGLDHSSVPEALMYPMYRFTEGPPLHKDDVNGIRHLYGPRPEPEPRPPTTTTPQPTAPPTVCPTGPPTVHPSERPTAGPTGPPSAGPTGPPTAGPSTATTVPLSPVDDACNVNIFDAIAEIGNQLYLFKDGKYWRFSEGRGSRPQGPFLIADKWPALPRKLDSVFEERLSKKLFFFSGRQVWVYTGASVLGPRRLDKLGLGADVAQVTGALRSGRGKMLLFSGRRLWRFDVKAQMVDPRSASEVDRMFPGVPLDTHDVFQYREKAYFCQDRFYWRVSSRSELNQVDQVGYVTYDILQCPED
T4 sequence (chain, as listed by the source limits assumed, chain 1 of 2): as the sequence (P14780 20-707) above
T4 sequence (P80188 21-198 limits assumed, chain 2 of 2): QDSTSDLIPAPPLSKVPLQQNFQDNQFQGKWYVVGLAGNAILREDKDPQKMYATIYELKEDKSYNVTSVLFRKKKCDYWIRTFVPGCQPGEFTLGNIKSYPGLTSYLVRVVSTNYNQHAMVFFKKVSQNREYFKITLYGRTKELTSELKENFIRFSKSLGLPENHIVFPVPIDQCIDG
mouse active MMP9, sequence (P41245 108-730 limits assumed): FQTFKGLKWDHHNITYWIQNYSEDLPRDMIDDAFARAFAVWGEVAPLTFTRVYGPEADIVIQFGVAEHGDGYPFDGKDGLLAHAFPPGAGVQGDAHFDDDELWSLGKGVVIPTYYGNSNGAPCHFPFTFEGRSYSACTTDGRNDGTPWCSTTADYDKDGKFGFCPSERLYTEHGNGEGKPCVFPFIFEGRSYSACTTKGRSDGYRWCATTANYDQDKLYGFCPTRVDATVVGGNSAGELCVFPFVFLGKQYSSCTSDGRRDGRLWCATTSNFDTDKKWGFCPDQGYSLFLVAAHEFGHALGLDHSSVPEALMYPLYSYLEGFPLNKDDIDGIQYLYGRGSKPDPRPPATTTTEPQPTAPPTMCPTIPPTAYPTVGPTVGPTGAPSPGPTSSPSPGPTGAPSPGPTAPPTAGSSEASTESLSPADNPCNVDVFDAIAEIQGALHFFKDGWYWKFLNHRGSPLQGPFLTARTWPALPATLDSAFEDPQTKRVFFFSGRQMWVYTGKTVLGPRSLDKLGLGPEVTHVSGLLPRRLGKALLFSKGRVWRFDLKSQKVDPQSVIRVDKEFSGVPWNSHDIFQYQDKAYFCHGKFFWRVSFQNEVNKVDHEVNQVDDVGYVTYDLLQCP
mouse proMMP9, sequence (P41245 20-730): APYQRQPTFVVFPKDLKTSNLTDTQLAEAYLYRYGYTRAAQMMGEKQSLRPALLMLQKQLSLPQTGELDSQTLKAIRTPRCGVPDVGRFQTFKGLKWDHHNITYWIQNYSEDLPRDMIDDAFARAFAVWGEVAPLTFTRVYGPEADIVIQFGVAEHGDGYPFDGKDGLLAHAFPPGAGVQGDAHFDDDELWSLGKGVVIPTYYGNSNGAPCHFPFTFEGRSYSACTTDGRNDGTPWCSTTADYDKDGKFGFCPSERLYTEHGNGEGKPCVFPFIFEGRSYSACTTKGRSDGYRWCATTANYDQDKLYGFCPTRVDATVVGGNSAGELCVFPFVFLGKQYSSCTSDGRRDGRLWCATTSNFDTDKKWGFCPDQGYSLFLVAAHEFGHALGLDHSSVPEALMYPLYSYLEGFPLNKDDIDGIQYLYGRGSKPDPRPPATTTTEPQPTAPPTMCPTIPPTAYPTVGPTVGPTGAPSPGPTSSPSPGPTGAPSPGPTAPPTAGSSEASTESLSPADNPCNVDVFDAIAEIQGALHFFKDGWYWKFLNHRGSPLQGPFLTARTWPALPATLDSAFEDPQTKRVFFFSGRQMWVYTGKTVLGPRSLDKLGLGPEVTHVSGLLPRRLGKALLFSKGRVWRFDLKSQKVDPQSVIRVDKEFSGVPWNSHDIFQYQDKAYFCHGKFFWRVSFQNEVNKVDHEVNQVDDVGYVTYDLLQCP

In the first assay the target is Cynomologus monkey (cyno) proMMP9 (Cynomologus monkey). In words: cell-based or functional assay.
For B1, the “Efficacy, MMP3/MMP9 gelatin assay” value worked out at 100% and the “IC50 (nM), MMP3/MMP9 gelatin assay” value came out at 3.85 nM.

B2: the “Efficacy, MMP3/MMP9 gelatin assay” value is 100% and the “IC50 (nM), MMP3/MMP9 gelatin assay” value came to 12.5 nM.

On to B3, for which the “Efficacy, MMP3/MMP9 gelatin assay” value stood at 100% and the “IC50 (nM), MMP3/MMP9 gelatin assay” value was 3.75 nM.

Turning to B4, the “Efficacy, MMP3/MMP9 gelatin assay” value was found to be 100% and the “IC50 (nM), MMP3/MMP9 gelatin assay” value was 27.6 nM.

As for B5, the “Efficacy, MMP3/MMP9 gelatin assay” value is 100% and the “IC50 (nM), MMP3/MMP9 gelatin assay” value came to 5.86 nM.

With B6, the “Efficacy, MMP3/MMP9 gelatin assay” value turned out to be 100% and the “IC50 (nM), MMP3/MMP9 gelatin assay” value stood at 15.8 nM.

With B7, the “Efficacy, MMP3/MMP9 gelatin assay” value was determined as 100% and the “IC50 (nM), MMP3/MMP9 gelatin assay” value stood at 29.9 nM.

As to B8, the “Efficacy, MMP3/MMP9 gelatin assay” value turned out to be 100% and the “IC50 (nM), MMP3/MMP9 gelatin assay” value is 10.8 nM.

The target of another assay is T1, human MMP9 (i.e. activated MMP9), catalytically active caspase-cleaved recombinant MMP9 (human, UniProt P14780 107-707). In words: cell-based or functional assay.
T1 sequence (P14780 107-707): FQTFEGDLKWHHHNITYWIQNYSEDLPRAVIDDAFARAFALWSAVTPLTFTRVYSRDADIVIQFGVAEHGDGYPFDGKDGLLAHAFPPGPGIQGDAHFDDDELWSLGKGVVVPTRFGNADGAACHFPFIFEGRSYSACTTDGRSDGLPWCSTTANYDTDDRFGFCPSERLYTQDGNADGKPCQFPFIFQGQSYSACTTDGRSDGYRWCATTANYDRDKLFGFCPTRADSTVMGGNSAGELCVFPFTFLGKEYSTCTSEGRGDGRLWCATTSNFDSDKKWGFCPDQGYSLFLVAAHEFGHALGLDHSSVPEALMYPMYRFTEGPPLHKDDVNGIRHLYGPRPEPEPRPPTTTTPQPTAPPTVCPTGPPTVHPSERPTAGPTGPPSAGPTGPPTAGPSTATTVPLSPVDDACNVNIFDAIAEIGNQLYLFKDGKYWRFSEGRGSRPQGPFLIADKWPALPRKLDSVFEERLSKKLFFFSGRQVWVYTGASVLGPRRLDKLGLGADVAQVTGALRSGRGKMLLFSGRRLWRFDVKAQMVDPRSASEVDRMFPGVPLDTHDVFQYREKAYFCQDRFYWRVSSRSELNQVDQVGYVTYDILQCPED
For B5, the “IC50, DQ-gelatin digestion, MMP9 assay with highly purified activated MMP9” value was determined as 2.6 nM.

In another assay the target is T2, neutrophil-derived human dimeric MMP9 (human, UniProt P14780 20-707). In words: cell-based or functional assay.
T2 sequence (P14780 20-707): as the sequence (P14780 20-707) above
Regarding B5, the “efficacy of inhibition, MMP3/MMP9 assay with neutrophil-derived MMP9” value (shortened to “efficacy of inhibition, MMP3/MMP9 assay”) is 100% and the “efficacy of neutralisation, APMA-activated neutrophil-derived MMP9, OmniMMP RED cleavage” value (shortened to “efficacy of neutralisation”) came to 100%.

For a further assay, the target named is T3, neutrophil-derived human monomeric MMP9 (human, UniProt P14780 20-707). Briefly: cell-based or functional assay.
T3 sequence (P14780 20-707): as above
Regarding B5, the “efficacy of inhibition, MMP3/MMP9 assay” value was determined as 100% and the “efficacy of neutralisation” value amounted to 100%.

A further assay concerns the target T4, neutrophil-derived human NGAL/MMP9 complex (human, UniProt P80188 21-198). In words: cell-based or functional assay.
In the case of B5, the “efficacy of inhibition, MMP3/MMP9 assay” value was 100% and the “efficacy of neutralisation” value is 100%.

For another assay, the target named is T2, neutrophil-derived human dimeric MMP9. In words: cell-based or functional assay. This is another data set of the same source.
Turning to B5, the “IC50 (read off the curve)” value was approximately 0.5 nM.

The next assay has as its target T3, neutrophil-derived human monomeric MMP9. In words: cell-based or functional assay. The source holds these as a separate data set.
In the case of B5, the “IC50 (read off the curve)” value is approximately 2 nM.

A further assay has as its target T4, neutrophil-derived human NGAL/MMP9 …. Briefly: cell-based or functional assay. The source holds these as a separate data set.
Take B5: the “IC50 (read off the curve)” value was approximately 2 nM.

The next assay has as its target rat proMMP9 (rat, UniProt P50282 20-708). In words: cell-based or functional assay.
As for B1, the “Efficacy, MMP3/MMP9 gelatin assay” value is 100% and the “IC50 (nM), MMP3/MMP9 gelatin assay” value turned out to be 4.99 nM.

In the case of B2, the “Efficacy, MMP3/MMP9 gelatin assay” value came to 100% and the “IC50 (nM), MMP3/MMP9 gelatin assay” value worked out at 8.82 nM.

As for B3, the “Efficacy, MMP3/MMP9 gelatin assay” value came out at 100% and the “IC50 (nM), MMP3/MMP9 gelatin assay” value was found to be 2.83 nM.

As for B4, the “Efficacy, MMP3/MMP9 gelatin assay” value was 100% and the “IC50 (nM), MMP3/MMP9 gelatin assay” value was found to be 12.3 nM.

Turning to B5, the “Efficacy, MMP3/MMP9 gelatin assay” value is 100% and the “IC50 (nM), MMP3/MMP9 gelatin assay” value was determined as 3.16 nM.

As for B6, the “Efficacy, MMP3/MMP9 gelatin assay” value was 100% and the “IC50 (nM), MMP3/MMP9 gelatin assay” value was found to be 7.77 nM.

In the case of B7, the “Efficacy, MMP3/MMP9 gelatin assay” value is 100% and the “IC50 (nM), MMP3/MMP9 gelatin assay” value is 17.4 nM.

Consider B8, for which the “Efficacy, MMP3/MMP9 gelatin assay” value amounted to 100% and the “IC50 (nM), MMP3/MMP9 gelatin assay” value came out at 6.19 nM.

In another assay the target is T2, neutrophil-derived human dimeric MMP9. Briefly: cell-based or functional assay. The source holds these as a separate data set.
Turning to B5, the “IC50 (read off the curve)” value was approximately 10 nM.

For the next assay, the target named is T3, neutrophil-derived human monomeric MMP9. In words: cell-based or functional assay. This is another data set of the same source.
On to B5, for which the “IC50 (read off the curve)” value was approximately 10 nM.

The target in the next assay is T5, recombinant human proMMP9 (full length, latent form) (human, UniProt P14780 20-707). In words: SPR (BIAcore), antibody captured by anti-human Fc, antigen titrated 4.7-150 nM; SPR (BIAcore), antibody captured by anti-human Fc, pro-MMP9 up to 150 nM; lower bound estimated from <1% binding. Here is the method:
(§1) In a second step, pro-MMP9 or MMP3-activated MMP9 were titrated from 4.7 to 150 nM in 2-fold dilutions.
Take B5: the Kd (usually the constant that tells how readily two partners part at equilibrium) is more than 15000 nM.

A further assay has as its target mouse proMMP9 (mouse, UniProt P41245 20-730). In words: cell-based or functional assay.
For B1, the “Efficacy, MMP3/MMP9 gelatin assay” value was found to be 25% and the “IC50 (nM), MMP3/MMP9 gelatin assay” value stood at 38.8 nM.

For the molecule B2, the “IC50 (nM), MMP3/MMP9 gelatin assay” value is more than 500 nM.

With B3, the “Efficacy, MMP3/MMP9 gelatin assay” value stood at 100% and the “IC50 (nM), MMP3/MMP9 gelatin assay” value was 462 nM.

For B4, the “Efficacy, MMP3/MMP9 gelatin assay” value came to 100% and the “IC50 (nM), MMP3/MMP9 gelatin assay” value was found to be 11.1 nM.

As to B5, the “Efficacy, MMP3/MMP9 gelatin assay” value amounted to 100% and the “IC50 (nM), MMP3/MMP9 gelatin assay” value amounted to 7.8 nM.

On to B6, for which the “Efficacy, MMP3/MMP9 gelatin assay” value came out at 100% and the “IC50 (nM), MMP3/MMP9 gelatin assay” value came to 7.69 nM.

For B7, the “Efficacy, MMP3/MMP9 gelatin assay” value came to 100% and the “IC50 (nM), MMP3/MMP9 gelatin assay” value worked out at 7.91 nM.

For the molecule B8, the “Efficacy, MMP3/MMP9 gelatin assay” value worked out at 100% and the “IC50 (nM), MMP3/MMP9 gelatin assay” value was 12.7 nM.

The next assay concerns the target mouse active MMP9 (mouse, UniProt P41245 108-730, limits assumed). In words: cell-based or functional assay.
B1: the “Efficacy, MMP9 gelatin assay” value was 100% and the “IC50 (nM), MMP9 gelatin assay” value was determined as 333 nM.

As for B2, the “IC50 (nM), MMP9 gelatin assay” value was more than 500 nM.

B3: the “Efficacy, MMP9 gelatin assay” value worked out at 100% and the “IC50 (nM), MMP9 gelatin assay” value turned out to be 164 nM.

B4: the “Efficacy, MMP9 gelatin assay” value is 100% and the “IC50 (nM), MMP9 gelatin assay” value was 1.91 nM.

Consider B5, for which the “Efficacy, MMP9 gelatin assay” value is 100% and the “IC50 (nM), MMP9 gelatin assay” value amounted to 1.27 nM.

Consider B6, for which the “Efficacy, MMP9 gelatin assay” value was 100% and the “IC50 (nM), MMP9 gelatin assay” value worked out at 1.2 nM.

In the case of B7, the “Efficacy, MMP9 gelatin assay” value stood at 100% and the “IC50 (nM), MMP9 gelatin assay” value is 0.86 nM.

Regarding B8, the “Efficacy, MMP9 gelatin assay” value was determined as 100% and the “IC50 (nM), MMP9 gelatin assay” value was determined as 2.37 nM.

For a further assay, the target named is T1, human MMP9 (i.e. activated MMP9), …. Briefly: cell-based or functional assay. The source holds these as a separate data set.
Regarding B1, the “Efficacy, DQ-gelatin digestion, MMP9 assay” value is 100% and the “IC50 (nM), DQ-gelatin digestion, MMP9 assay” value was 1.92 nM.

B2: the “Efficacy, DQ-gelatin digestion, MMP9 assay” value came out at 100% and the “IC50 (nM), DQ-gelatin digestion, MMP9 assay” value came to 3.16 nM.

On to B3, for which the “Efficacy, DQ-gelatin digestion, MMP9 assay” value worked out at 100% and the “IC50 (nM), DQ-gelatin digestion, MMP9 assay” value was found to be 1.3 nM.

In the case of B4, the “Efficacy, DQ-gelatin digestion, MMP9 assay” value stood at 100% and the “IC50 (nM), DQ-gelatin digestion, MMP9 assay” value was determined as 3.86 nM.

As for B5, the “Efficacy, DQ-gelatin digestion, MMP9 assay” value is 100% and the “IC50 (nM), DQ-gelatin digestion, MMP9 assay” value was 0.97 nM.

On to B6, for which the “Efficacy, DQ-gelatin digestion, MMP9 assay” value amounted to 100% and the “IC50 (nM), DQ-gelatin digestion, MMP9 assay” value turned out to be 2.64 nM.

In the case of B7, the “Efficacy, DQ-gelatin digestion, MMP9 assay” value stood at 100% and the “IC50 (nM), DQ-gelatin digestion, MMP9 assay” value stood at 3.92 nM.

For the molecule B8, the “Efficacy, DQ-gelatin digestion, MMP9 assay” value was found to be 100% and the “IC50 (nM), DQ-gelatin digestion, MMP9 assay” value was 2.92 nM.

Another assay addresses T5, recombinant human proMMP9 (full length, …). In words: cell-based or functional assay.
Turning to B1, the “Efficacy, DQ-gelatin digestion, MMP3/MMP9 assay” value came out at 100% and the “IC50 (nM), DQ-gelatin digestion, MMP3/MMP9 assay” value (“IC50 (nM) … MMP3/MMP9 assay” below) worked out at 9.05 nM.

Regarding B2, the “Efficacy, DQ-gelatin digestion, MMP3/MMP9 assay” value was found to be 100% and the “IC50 (nM) … MMP3/MMP9 assay” value is 15.2 nM.

For the molecule B3, the “Efficacy, DQ-gelatin digestion, MMP3/MMP9 assay” value turned out to be 100% and the “IC50 (nM) … MMP3/MMP9 assay” value is 5.48 nM.

Turning to B4, the “Efficacy, DQ-gelatin digestion, MMP3/MMP9 assay” value was determined as 100% and the “IC50 (nM) … MMP3/MMP9 assay” value amounted to 38.1 nM.

As for B5, the “Efficacy, DQ-gelatin digestion, MMP3/MMP9 assay” value came to 100% and the “IC50 (nM) … MMP3/MMP9 assay” value came to 9.52 nM.

On to B6, for which the “Efficacy, DQ-gelatin digestion, MMP3/MMP9 assay” value turned out to be 100% and the “IC50 (nM) … MMP3/MMP9 assay” value came to 23.7 nM.

Regarding B7, the “Efficacy, DQ-gelatin digestion, MMP3/MMP9 assay” value was determined as 100% and the “IC50 (nM) … MMP3/MMP9 assay” value was 44 nM.

As to B8, the “Efficacy, DQ-gelatin digestion, MMP3/MMP9 assay” value stood at 100% and the “IC50 (nM) … MMP3/MMP9 assay” value was found to be 20.4 nM.

The target in another assay is MMP3-activated recombinant human MMP9 (human, UniProt P14780 107-707). In words: SPR (BIAcore), antibody captured by anti-human Fc, antigen titrated 4.7-150 nM. As to the method: as §1
MMP3-activated recombinant human MMP9, sequence (P14780 107-707): as the sequence (P14780 107-707) above
B5: the dissociation constant (Kd) was found to be 11.7 nM.
